Tests used:
[1] = molecular target: Respiratory Syncytial Virus fusion glycoprotein (RSV F) on RSV-A2 virus (Respiratory Syncytial Virus subtype A (RSV-A2)); assay: cell-based or functional assay
[2] = molecular target: RSV postfusion F (postF), F deltaFP (Respiratory Syncytial Virus); assay: BLI, IgG on anti-human IgG sensor, 100 nM antigen
[3] = molecular target: RSV prefusion F (preF), DS-Cav1 (Respiratory Syncytial Virus); assay: BLI, IgG on anti-human IgG sensor, 100 nM antigen

B1: ADI-41173 (antibody, V domains shown)
VH: QVQLVQSGAEMKKPGSSAKVSCKASGGTLSSYAINWVRQAPGQGLEWMGGIIPIFGTTKYAPKFQDRVTITVDESTSTAYMELSSLRSEDTAVYYCSRESSTWDVAHYFDYWGQGTLVTVSS
VL: DIVMTQTPSAISASVGDRVTITCRASQGISNYLAWVQQKPGKVPKRLIYGASSLQSGVPSRFSGSGSGTEFTLTISSLQPEDFATYYCLQHNSYPYTFGQGTKVEIK
[1]
  Neutralization IC50 (RSV subtype A): 0.08 µg/mL
[2]
  Kd: 0.294 nM
[3]
  Kd: 0.315 nM

B2: ADI-41200 (antibody, V domains shown)
VH: EVQLLESGGGLVKPGGSLRLSCAASGLTFSDHDMSWVRQAPGKGLEWVSGIGGSGSNTYYAGSVKGRFTISRDNSKNTLYLQMDSLRVEDTAVYYCAKDPYGDYRDYYGMDVWGQGTTVTVSS
VL: DIVLTQTPFSLPVTPGEPASISCRSSQSLLKSNGYNYLDWFLQKPGQSPQLLIYLGSNRASGVPDRFSGSGSGTDFTLKISRVEAEDVGVYYCMQTLQALYTFGQGTKVEIK
[1]
  Neutralization IC50 (RSV subtype A): > 25 µg/mL
[2]
  Kd: 0.318 nM
[3]
  Kd: 0.334 nM

B3: ADI-41185 (antibody, V domains shown)
VH: QVQLQQWGAGLLKPSETLSLTCAVYGGSFSSYYYSWIRQPPGKGLEWIGEINQSGSTNYNPSLKSRVTISVDTSKNEFSLKLSSVTAADTAVYYCARIVREFNTRWYDYYYMDVWGKGTTVTVSS
VL: DIRVTQSPATLSLSPGERATLSCRTSQSISSSYLAWYQQKFGQAPRLLIYGASSRATGIPDRFSGSGSGTDFTLTISRLEPEDFAVYYCQQYGISPPMYTFGQGTKVEIK
[1]
  Neutralization IC50 (RSV subtype A): > 25 µg/mL
[2]
  Kd: 0.809 nM
[3]
  Kd: 3.23 nM

B4: ADI-41184 (antibody, V domains shown)
VH: EVQLLETGGGLVQPGGSLRLSCAASGFTFSSYDMNWVRQAPGKGLEWVSTISGSGGPTYYAGSVKGRFTISRDNSKNTLYLQMNSLRADDTAVYYCAKAQLYDTSGYYLYYFDYWGQGTLVTVSS
VL: DIRMTQSPSSLSASVGDRVTITCRASQRITSYLNWYQQKPGKAPKLLIYAASSLQSGVPSRFSGSGSGTDFTLTISSLQPEDFATYFCQQSYSTSFTFGPGTKVDIK
[1]
  Neutralization IC50 (RSV subtype A): > 25 µg/mL
[2]
  Kd: 0.532 nM
[3]
  Kd: 2.85 nM

B5: ADI-41183 (antibody, V domains shown)
VH: QVQLQESGAGLVKPSETLSLTCGVYGESFSGHSWSWIRQPPGRGLEWIGEINQSGTTKYNPSLRSRVTISVDRSKNEFSLKVSSVTAADTAVYFCARYFRSFYTIGPDYYYMDVWGKGTTVTVSS
VL: EIVLTQSPSSLSASVGDRVTITCRASQNINNYLNWYQQKPGKAPRLLIYAASSLQSGVPSRFTGSGSGTDFTLTIRSLQSEDFATYYCQHSYSSSLLTFGGGTKVDIK
[1]
  Neutralization IC50 (RSV subtype A): > 25 µg/mL
[2]
  Kd: 1 nM
[3]
  Kd: 4.08 nM

B6: ADI-41196 (antibody, V domains shown)
VH: EVQLVESGGGLVQPGGSLRLSCIVSGFPFNTYAMSWVRQAPGKGLEWVSVVSASGGNTDYADSVKGRFTISRDNSKKTLYLQMNSLRAEDTAVYYCARTESNTLAPSWSGRYVTDWYFDLWGRGTLVTVSS
VL: EIVMTQSPSSLSASVGDRVTITCRASQSISSFLNWYQQKPGKAPKLLISAASSLQSGVPSRFSGSGSGTDFTLTISSLQPEDFATYYCQQSYSIPTFGQGTRLEIK
[1]
  Neutralization IC50 (RSV subtype A): > 25 µg/mL
[2]
  Kd: 0.595 nM
[3]
  Kd: 2.92 nM

B7: ADI-41181 (antibody, V domains shown)
VH: QVQLVQSGAEVKKPGSSVKVSCKASGGSFSSYTLNWVRQAPGQGLEWMGRFVPIVGIANYAQKFQGRVTITADKSTSTVYMELSSLRSEDTAVYYCATAPTAYCSGDCYSLFDPWGQGTLVTVSS
VL: QSVLIQPASVSGSPGQSITISCTGISSDVGSYNLVSWYQQHPGKAPKLIIYEVNKRPSGVSNRFSGSKSGNTASLTISGLQAEDEADYYCCSYAVSRTSLYVFGTGTKVTVL
[1]
  Neutralization IC50 (RSV subtype A): > 25 µg/mL
[2]
  Kd: 0.936 nM
[3]
  Kd: 1.95 nM

B8: ADI-41186 (antibody, V domains shown)
VH: EVQLLESGAEVKKPGESLKISCKGSGYSFSSYWIAWVRQMPGKGLEWMGIIYPSDSDTKYSPSFQGQVTISADKSISTAYLQWSSLKASDTAMYYCARQAGIQRPLDYWGQGTLVTVSS
VL: EIVMTQSPATLSVSPGERATLSCRASQSVRSNLAWYQQKPGQAPRLLIYDASTRATGISARFSGSGSGTEFTLTISSLQSEDFAVYYCQQFHNWPPYTFGQGTKVEIK
[1]
  Neutralization IC50 (RSV subtype A): > 25 µg/mL
[2]
  Kd: 0.703 nM
[3]
  Kd: 3.01 nM

B9: ADI-41175 (antibody, V domains shown)
VH: EVQLLESGGGVVQPGRSLRLSCATSGFTFSSYGMHWVRQAPGKGLEWVAVIYYEGSNKYYGDSVKGRFTISRDNSKSTLYLQMNRLRAEDTAVYYCARRPAGGFDYWGPGTLVTVSS
VL: EIVMTQSPLSLPVTPGEPASISCRSSQNLLNSNGYNYLDWYLQKPGQSPQLLIYLGSNRASGVPDRFSGSGSGTDFTLKISRVEAEDVGVYYCMQALQTPYTFGQGTKLEIK
[1]
  Neutralization IC50 (RSV subtype A): > 25 µg/mL
[2]
  Kd: 1.07 nM
[3]
  Kd: 4.25 nM

B10: ADI-41182 (antibody, V domains shown)
VH: QVQLVQSGAEVKKPGESLKISCQGSGYSFTSYWIGWVRQMPGKDLEWMGIIYPSDSDTRYSPSFQGQVTISVDKSINTAYLQWTSLKASDTAMYYCARCDGAVYWYFDLWGRGTLVTVSS
VL: EIVLTQSPATLSVSPGERVTLSCRASRSVSSHLAWYQQKPGQAPRLLMYGASTRATGIPARFSGSGSGTEFTLTISSLQSEDFGVYYCQQYNNWPPALTFGGGTKLEIK
[1]
  Neutralization IC50 (RSV subtype A): > 25 µg/mL
[2]
  Kd: 0.462 nM
[3]
  Kd: 2.55 nM

B11: ADI-41189 (antibody, V domains shown)
VH: QVQLVESGGGLVKPGGSLRLSCAASGFTFSSYSMNWVRQAPGKGLEWVSSMSSSSGYIDYADSVKGRFTISRDNAKNSLYLQMNSLRVEDTAVYYCARRNAVVVPSLMVVADYYYGMDVWGQGTTVTVSS
VL: QSVLTQPPSVSGAPGQRVTISCTGSSSNIGAGYDVHWYQQLPGTAPKLLIYGNSNRPSGVPDRFSGSKSGTSASLAITGLQAEDEADYYCQSYDTSLSGPGYVFGTGTKLTVL
[1]
  Neutralization IC50 (RSV subtype A): > 25 µg/mL
[2]
  Kd: 0.608 nM
[3]
  Kd: 2.86 nM

B12: ADI-41179 (antibody, V domains shown)
VH: QVQLVQSGAEVKKPGSSVKISCKASGGTFSSHPISWVRQAPGQGLEWMGRIVPIFGIANYAQKFQGRVTMIADKSTNTAYMELSNLRSEDTAVYYCANPVYDSSGFQWGQGTLVTVSS
VL: QPVLTQPRSVSGSPGQSVTISCTGTSGDGGFYNYVSWYQQHPGKTPKLMIYDVDQRPSGVPDRFSGSKSGNTASLTISGLQAEDEADYYCCSYPGNPLYVFGTGTKVTVL
[1]
  Neutralization IC50 (RSV subtype A): > 25 µg/mL
[2]
  Kd: 0.342 nM
[3]
  Kd: 0.948 nM

B13: ADI-41190 (antibody, V domains shown)
VH: QVQLVQSGAEVKKPGASVKVSCKAFGYTFRSYDMQWVRQAPGQRLEWMGWINAVNGDTKYSQKFQGRVTITRDTSATTVYMELSSLRSEDTAVYYCARWGRFWNSRSLDYYAMDVWGQGTTVTVSS
VL: DIVMTQSPGTLSLSPGERATLSCRASQSISSSYLVWYQHKPGQAPRLLIYGASTRATDIPDRFSGSGSGTDFTLTISRLEPEDFAVYYCQQYGSSPLTFGQGTRLEIK
[1]
  Neutralization IC50 (RSV subtype A): > 25 µg/mL
[2]
  Kd: 0.971 nM
[3]
  Kd: 2.29 nM

B14: ADI-41197 (antibody, V domains shown)
VH: QVQLVQSGAEVKKPGASVKVSCKASGYTFSGYYMHWVRQAPGQGLEWVGRINPKSGDTVYAQKFQGRVTMTRDTSISTAYMELSRLISDDTAKYYCARQEDHYYGSGNFYNSFDFWGQGTLVTVSS
VL: ETTLTQSPSSLSASVGDRVTITCRASQSISSNLNWYQQKPGKAPKLLIYGASTLQSGVPSRFSGSGSGTDFTLTISSLQPEDLATYYCQQSYSNPGKTFGQGTKVDIK
[1]
  Neutralization IC50 (RSV subtype A): 0.27 µg/mL
[2]
  Kd: 0.531 nM
[3]
  Kd: 0.795 nM

From US20260258115A1
